Assay results reported in paper doi:10.1101/2023.01.20.524748.

Biological target: B.1.1.529 (BA.1) S1 + S2 Trimer-His Recombinant Protein (SARS-CoV-2) (UniProt P0DTC2)
Assay: cryo-EM structure

B.1.1.529 (BA.1) S1 + S2 Trimer-His Recombinant Protein (from UniProt P0DTC2 324-533) (natural protein)
stoichiometry N: 3
